According to patent publication US7816094B2, “Method for quantitative analysis of interactions between HIF-1alpha C-terminal peptides and CBP or p300 proteins and method of screening inhibitors using the same” (Korea Institute of Science and Technology, priority 2006, dated 2010):
Ends that are not written are not given here. * marks the point of attachment. FITC = O=C1OC2(c3ccc(O)cc3Oc3cc(O)ccc32)c2ccc(NC(=S)*)cc21; Ahx = NCCCCCC(=O)O

Columns and labels:
[1] = biological target: T1, GST-p300 (truncated p300, amino acids 1-221) (Homo sapiens, UniProt Q09472); test: Fluorescence polarization (FP)-based binding assay of fluorescein-labeled HIF-1α peptides with GST-p300; settings: increasing GST-p300 concentrations; FIG. 2B, 3B, 4C, 5B, 5D
T1 construct: made in house; host or cells: E. coli BL21
Procedure: (§1) The binding affinity and features between the HIF-1α peptides and CBP or p300 proteins were analyzed by measuring the fluorescence polarization (FP) values that were changed by the formation of a protein-ligand complex through the interaction between the CBP or p300 proteins and the synthesized peptides that were manufactured by the method as described in above Example 1. The FP values were measured with a fluorescence spectrometer (Perkin-Elmer), which was set to have a slit width of 5 nm and a total integration time of 5 seconds. EBC Buffer (50 mM Tris and 120 mM NaCl; pH 8.0, 0.25% Nonidet P (NP)-40) was used for the binding reaction.
(§2) Because the cysteine-/histidine-rich 1(CH1) domain of CBP or p300 proteins that binds the C-terminal transactivation domain (C-TAD) of HIF-1α contains the Zn^2+-coordinating centers, an embodiment of the present invention first tested for the importance of Zn^2+ added in the preparation of CBP or p300 proteins by cell lysis and protein elution on their binding to the HIF-1α-derived peptides, wherein the GST-CBP or GST-p300 proteins containing the CH1 domain were prepared by cell lysis and protein elution in the presence or absence of ZnSO4. 800 nM of CBP or p300 proteins in the EBC Buffer prepared from above Example 1 were mixed with 100 nM of F-HIF-1α(776-826, SEQ ID NO: 3) and F-HIF-1α(786-826, SEQ ID NO: 4) peptides at 25° C., respectively. Then, the FP (fluorescence polarization) values were measured.
To compare interactions between the four peptides derived from different regions in HIF-1α C-TAD with CBP or p300, these fluorescein-labeled HIF-1α peptides were mixed with CBP proteins at varying concentrations from 0 to 3000 nM under the conditions of above Example 2-2, and then the FP (fluorescence polarization) values were measured (FIG. 2A).
The dissociation constants of these two peptides were determined to be 157.3 nM for HIF-1α(776-826, SEQ ID NO: 3) and 180.1 nM for HIF-1α(786-826, SEQ ID NO: 4), respectively.

[2] = biological target: T2, GST-CBP (truncated human CBP, amino acids 1-450) (Homo sapiens, UniProt Q92793); test: Fluorescence polarization (FP)-based binding assay of fluorescein-labeled HIF-1α peptides with GST-CBP; settings: GST-CBP 0 to 3000 nM; FIG. 2A
T2 construct: made in house; host or cells: E. coli BL21
Procedure: as §1
as §2, with “800 nM of CBP or p300 proteins in the EBC Buffer prepared from above Example 1 were mixed with 100 nM of F-HIF-1α(776-826, SEQ ID NO: 3) and F-HIF-1α(786-826, SEQ ID NO: 4) peptides at 25° C., respectively.” left out, “measured. […]” for “measured.”

[3] = biological target: T3, GST-p300 / F-HIF-1α-(786-826, SEQ ID NO: 4) interaction (Homo sapiens, UniProt Q09472); test: Competitive inhibition analysis of the FP-based binding assay (F-HIF-1α-p300 interaction); settings: compared with wild-type peptide; FIG. 6
T3 construct: made in house; host or cells: E. coli BL21 for GST-p300; the tracer peptide was synthesized by Anygen
Procedure: To compare the importance of Thr-796, Cys-800, and Asn-803 residues in the HIF-1α peptide on its p300 binding activity, an embodiment of the present invention performed competitive inhibition analyses of the FP-based binding assays using single mutant peptides. The mutant peptides were prepared with the method as described below.
Namely, human HIF-1α-(786-826, SEQ ID NO: 4) and its single mutation products prepared by PCR were subcloned into pGEX-2T-1 (Amersham Biosciences), and overexpressed in E. coli BL21 (DE3). After the GST fusion proteins were purified using glutathione-SEPHAROSE (Amersham Biosciences), followed by GST removal with thrombin treatment, the resulting peptides were purified using reverse-phase HPLC and confirmed by MALDI-TOF mass spectrometry. The results of competitive inhibition for HIF-1α-(786-826, SEQ ID NO: 4) peptides with point mutations on the HIF-1α-p300 interaction are depicted in FIG. 6.

T1 sequence (Q09472 300-520): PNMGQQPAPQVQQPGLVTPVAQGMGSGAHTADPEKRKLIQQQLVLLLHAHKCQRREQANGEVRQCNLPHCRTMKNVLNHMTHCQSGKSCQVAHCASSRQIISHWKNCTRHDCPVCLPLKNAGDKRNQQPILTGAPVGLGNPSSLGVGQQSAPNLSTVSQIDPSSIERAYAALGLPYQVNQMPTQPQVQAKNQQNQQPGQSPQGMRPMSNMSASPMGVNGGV
T3 sequence (Q09472 300-520): as above
T2 sequence (Q92793 1-450): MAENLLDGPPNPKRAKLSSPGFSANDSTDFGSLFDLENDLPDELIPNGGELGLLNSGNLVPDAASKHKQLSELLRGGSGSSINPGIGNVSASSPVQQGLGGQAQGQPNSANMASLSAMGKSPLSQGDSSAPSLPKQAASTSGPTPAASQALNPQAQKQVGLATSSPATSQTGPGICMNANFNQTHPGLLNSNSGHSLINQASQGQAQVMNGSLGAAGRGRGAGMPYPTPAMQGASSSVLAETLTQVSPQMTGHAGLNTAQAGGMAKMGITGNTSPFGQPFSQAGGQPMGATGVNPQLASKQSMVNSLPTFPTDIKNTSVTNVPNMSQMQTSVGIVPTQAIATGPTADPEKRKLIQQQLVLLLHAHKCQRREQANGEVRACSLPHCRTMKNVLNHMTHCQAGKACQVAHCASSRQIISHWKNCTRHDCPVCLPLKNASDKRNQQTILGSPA

Substance: FITC-ACA-DESGLPQLTSYDCEVNAPIQGSRNLLQGEELLRAL ({FITC-Ahx}-DESGLPQLTSYDCEVNAPIQGSRNLLQGEELLRAL) [HIF-1α(788-822, SEQ ID NO: 6), fluorescein (FITC)-labeled HIF-1α C-terminal peptide, residues 788-822, aminocaproic acid linker]
- FP values (change) upon mixing with GST-p300 [1]: increased much less than those of the above two peptides
- FP values (change) upon mixing with GST-CBP [2]: increased much less than those of the above two peptides

Substance: FITC-ACA-SDLACRLLGQSMDESGLPQLTSYDCEVNAPIQGSRNLLQ ({FITC-Ahx}-SDLACRLLGQSMDESGLPQLTSYDCEVNAPIQGSRNLLQ; cysteine pairing not given here) [HIF-1α(776-814, SEQ ID NO: 5), fluorescein (FITC)-labeled HIF-1α C-terminal peptide, residues 776-814, aminocaproic acid linker]
- FP values (change) upon mixing with GST-p300 [1]: no increase upon incubation with GST-p300
- FP values (change) upon mixing with GST-CBP [2]: no increase up to 3000 nM of GST-CBP

Substance: N803A: unlabeled HIF-1α (786-826) peptide with single mutation N803A (SMDESGLPQLTSYDCEVAAPIQGSRNLLQGEELLRALDQVN; Amino acid sequence for HIF-1a(786-826))
- competitive inhibition of F-HIF-1α-(786-826, SEQ ID NO: 4) binding to p300 [3]: to a little lesser degrees than the wild-type

Substance: S-nitrosylated F-HIF-1α (786-826, SEQ ID NO: 4): F-HIF-1α (786-826, SEQ ID NO: 4) treated with SNAP, S-nitrosylated on Cys-800, purified by reverse-phase HPLC
- FP values (change) upon mixing with GST-p300 [1]: only minimal increase in FP with increasing p300 concentrations

Substance: T796D: unlabeled HIF-1α (786-826) peptide with single mutation T796D (SMDESGLPQLDSYDCEVNAPIQGSRNLLQGEELLRALDQVN; Amino acid sequence for HIF-1a(786-826))
- competitive inhibition of F-HIF-1α-(786-826, SEQ ID NO: 4) binding to p300 [3]: to a little lesser degrees than the wild-type

Substance: hydroxylated peptide: F-HIF-1α (786-826, SEQ ID NO: 4) hydroxylated on asparagine by recombinant His-FIH-1, purified by reverse-phase HPLC
- FP values (change) upon mixing with GST-p300 [1]: only slightly increased with increasing p300 concentrations

Substance: peptide treated with N or H kinase fractions: F-HIF-1α (786-826, SEQ ID NO: 4) phosphorylated by normoxic or hypoxic HeLa kinase fractions, purified by reverse-phase HPLC
- FP values (change) upon mixing with GST-p300 [1]: FP increase upon incubation with GST-p300, similar to the untreated peptide
